Experimental data reported in the supplement of paper PMC9112550, “Optimization of the antimicrobial peptide Bac7 by deep mutational scanning” (BMC Biology, 2022).

Test system: Escherichia coli TOP10
Assay: shrunken log2 fold change of peptide-encoding DNA abundance (4.5 h post-induction vs induction); higher = less antimicrobial activity (less host growth inhibition)
Conditions: time post-induction: 4.5 h; library: site-saturation at positions 5, 18, 19, 20
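Also: peptides expressed intracellularly from a pBAD plasmid library in pooled LB shake-flask culture, induced with 0.3% L-arabinose, DNA abundance read by NGS, three biological replicates, DESeq2 with apeglm shrinkage.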

Row | Sequence | shrunken log2 fold change
1 | RRIRWRPPRLPRPRPRPQQWPRP | 0.333
2 | RRIRHRPPRLPRPRPRPWNRPRP | -0.297
3 | RRIRPRPPRLPRPRPRPIVDPRP | 0.0804
4 | RRIRCRPPRLPRPRPRPMFVPRP | -0.261
5 | RRIRWRPPRLPRPRPRPAYIPRP | -0.0757
6 | RRIRYRPPRLPRPRPRPFAIPRP | -0.158
7 | RRIRQRPPRLPRPRPRPCGNPRP | 0.0751
8 | RRIRKRPPRLPRPRPRPGRSPRP | 0.256
9 | RRIRFRPPRLPRPRPRPHRCPRP | -0.0295
10 | RRIRGRPPRLPRPRPRPNGGPRP | 0.0238
11 | RRIRHRPPRLPRPRPRPQAQPRP | -0.208
12 | RRIRQRPPRLPRPRPRPGPGPRP | 0.507
13 | RRIRCRPPRLPRPRPRPAWMPRP | -0.0623
14 | RRIRNRPPRLPRPRPRPRVRPRP | 0.212
15 | RRIRFRPPRLPRPRPRPIYWPRP | 0.0843
16 | RRIRYRPPRLPRPRPRPPQWPRP | 0.204
17 | RRIRSRPPRLPRPRPRPHVQPRP | 0.132
18 | RRIRERPPRLPRPRPRPFYYPRP | -0.618
19 | RRIRRRPPRLPRPRPRPSTWPRP | 0.00308
20 | RRIRARPPRLPRPRPRPEFIPRP | -0.189
21 | RRIRQRPPRLPRPRPRPVANPRP | 0.124
22 | RRIRYRPPRLPRPRPRPHFNPRP | -1.23
23 | RRIRHRPPRLPRPRPRPRMTPRP | 0.19
24 | RRIRMRPPRLPRPRPRPDEAPRP | 2.2
25 | RRIRPRPPRLPRPRPRPNILPRP | -0.305

Row | Sequence | shrunken log2 fold change
26 | RRIRIRPPRLPRPRPRPEFTPRP | -0.1
27 | RRIRMRPPRLPRPRPRPCPNPRP | 0.0197
28 | RRIRSRPPRLPRPRPRPSRQPRP | -0.447
29 | RRIRQRPPRLPRPRPRPCTKPRP | 0.00259
30 | RRIRKRPPRLPRPRPRPRYYPRP | -0.248
31 | RRIRPRPPRLPRPRPRPTIPPRP | -0.361
32 | RRIRKRPPRLPRPRPRPRKKPRP | 0.381
33 | RRIRRRPPRLPRPRPRPLFVPRP | -0.0826
34 | RRIRNRPPRLPRPRPRPSVAPRP | -0.0478
35 | RRIRERPPRLPRPRPRPPDKPRP | 0.0845
36 | RRIRFRPPRLPRPRPRPSNRPRP | -0.381
37 | RRIRFRPPRLPRPRPRPTPEPRP | 0.189
38 | RRIRLRPPRLPRPRPRPKSEPRP | 0.0422
39 | RRIRCRPPRLPRPRPRPWWEPRP | -0.368
40 | RRIRNRPPRLPRPRPRPRCFPRP | -0.404
41 | RRIRGRPPRLPRPRPRPMYEPRP | 0.282
42 | RRIRERPPRLPRPRPRPQEPPRP | -0.0182
43 | RRIRNRPPRLPRPRPRPGEHPRP | 0.00902
44 | RRIRCRPPRLPRPRPRPLCIPRP | -0.353
45 | RRIRWRPPRLPRPRPRPCTMPRP | -0.00405
46 | RRIRQRPPRLPRPRPRPSEAPRP | 0.17
47 | RRIRSRPPRLPRPRPRPCSNPRP | -0.0564
48 | RRIRARPPRLPRPRPRPAKMPRP | 0.463
49 | RRIRFRPPRLPRPRPRPEQCPRP | 0.285
50 | RRIRFRPPRLPRPRPRPAPSPRP | 0.607
